Measured values from the nanobody polyreactivity screen of Harvey et al. (2022).

Experiment: yeast display, Sf9 membrane polyspecificity reagent, FACS + sequencing; frameworks hold sequencing errors
Summary of the method: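 A synthetic nanobody library was expressed on Saccharomyces cerevisiae BJ5465 by galactose induction for 36–48 hours. The library was stained for 1 hour at 4 °C with 10% biotinylated, detergent-solubilized Sf9 membrane reagent and enriched with streptavidin microbeads before FACS. Low and high (top ~1%) gates were set on anti-HA fluorescence for expression and streptavidin fluorescence for reagent binding, and each polyreactivity label reflects the gate of origin.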
In the case of “QVQLVESGGGLVQAGGSLRLSCAASGFTFSPYVMGWYRQAPGKERELVATITAGGSSTFYADSVKGRFTISRDNAKNTVYLQMNSLKPEDTAVYYCNTVSPSFVYESTSDRFDYWGQGTQVTVSS”, the “polyreactivity (PSR sort gate)” value was “low polyreactivity”. With “QVQLVESGGGLVQAGGSLRLSCAASGRTLKYNPMGWYRQAPGKERELVAAISRSGGRTYYADSVKGRFTIARDIAKYSVYSQINSLKPEDTAVYYCARESSYYKYYYWGQGTQVTLSS” the “polyreactivity (PSR sort gate)” value was “high polyreactivity”. In the case of “QVQLVESGGGLVQAGGSLRLICAASGGIFGSYAMGWYRQAPGKEREFVAAIRYGSGSTYYADSVKGRFTISRDNAKNTVYLQMNSLKPEDTAVYYCATEYWGVYGYGFIYDYWGQGTQVTVSS”, the “polyreactivity (PSR sort gate)” value was “low polyreactivity”. With “QVQLVESGGGLVQAGGSLRLSCAASGRTFSANAMGWYRQAPGKERELVAGITSRGGGTYYADSVKGRFTISRDNAKNTVYLQMNSLKPEDTAVYYCAAPYNGGGVHSYWEYDYWGQGTQVTVSS” the “polyreactivity (PSR sort gate)” value was “high polyreactivity”. With “QVQLVESGGGLVQAGGSLRLSCAASGNILASNGMGLYRQAPGKERELVAAITYSGGSTYYADSVKGRFTISRDNAKNTVYLQMNSLKPEDTAVYDCAARYYYGRRYDYWGQGTQVTVSS” the “polyreactivity (PSR sort gate)” value was “low polyreactivity”. In the case of “QVQLVESGVGLVQAGGSLRLSCAASGRIFGAYAIGWYRQAPRKERELVAAISGSGGRTYYADSVKGRFTISRDSEKNTVYLQMNRLKPEDTAVYYCNKGYVYGHEYWGQGTQVTVSS”, the “polyreactivity (PSR sort gate)” value was “high polyreactivity”. With “QVHLVESGGGLVQAGGSLRLSCAASGRTFVQYAMGWSRQAPGTERELVAVISNGGTTYYADSVKGRFTISRDNAKNTVYLQMNSLKPEDTAVYYCAAKIITRRGGRYDYWGQGTQVTVSS” the “polyreactivity (PSR sort gate)” value was “high polyreactivity”. With “QVQLVESGGGLVQAGGSLRLSCAASGFTFDAYTMGWYRQAPGKERELVAAINWSGDTTYYADSVKGRFTISRDNAKNTVYFQMNSLKPEDTAVYYCAAVWWIYGVWFDYWGQGTQVTVSS” the “polyreactivity (PSR sort gate)” value was “high polyreactivity”. In the case of “QVQLVESAGGLVQAGGSLRLICAASGGTFVGYAMGWYRQAPGKERELVAAISRRGGSTYYADSVKGRFTISRDNAKNTVYLQMNSLKPEDTAVYYCAKSEHRSVPQYDYWGQGTQVTVSS”, the “polyreactivity (PSR sort gate)” value was “high polyreactivity”. In the case of “QVQLVESGGGLVQAGGSLRLSCAASGRIFGPYAMGWYRQAPGKERELVAAISWSGGSTYYADSVKGRFTISRDNAKNTVFLQMNSLKPEDTAVYYCAARERRVYGDRFYKLDYWGQGTQVTVSS”, the “polyreactivity (PSR sort gate)” value was “high polyreactivity”. For “QVQLVESGGGLVQAGGSLRLSCAASGRTFTQYAMGWYRQAPGKEREFVAAINFSGSRTYYADSVKGRFTISRDNAKNTVYLQMNSLKPEDTAVYYCNKRGSVYTSSQRQHDYWGQGTQVTVSS”, the “polyreactivity (PSR sort gate)” value was “low polyreactivity”. For “QVQRVESGGGIVQAGVSLSLSCPASGRIFTSNAMGWYRQEPGKERELVAAIRWSDGSTYYADSVKGRFTISRDNAKNTVYLQMNSLKPEDTAVYYCAADTRTSYYNDDYVFWGQGTQVTVSS”, the “polyreactivity (PSR sort gate)” value was “low polyreactivity”. In the case of “QVQLVESGGGLVQAGGSLRLSCAASGSTFPYNAKGWYRQAPGKERELVAAIDYSGGSTYADSVKGRFTISRDNAKNTVYLQMNSLKPEDTAVYYCAYCRVVVYDVSGDDEDYDYWRQGTQVTVSS”, the “polyreactivity (PSR sort gate)” value was “low polyreactivity”. In the case of “QVQLVESGGGLVQAGGSLRLSCAASGRIFYTYAMGWYRQAPGKERELVAAITTSGGRTYYADSVKGRFTISRDNAKNTVYLQMNSLKPEDTAVYYCNKLSSDSYNYWGQGTQVTVSS”, the “polyreactivity (PSR sort gate)” value was “high polyreactivity”. In the case of “QVQLVESGGGLVQAGGSLRLSCAASGRIFYEYAMGWYRQAPGKERELVAAITRGDSTYYADSVKGRFTISRDNAKNTVYLQMNSLKPEDTAVYFCNAGVFDYSGDSNYWGQGTQVTVSS”, the “polyreactivity (PSR sort gate)” value was “low polyreactivity”. For “QVQLVESGGGLVQAGGSLRLSCAASGSTFYYNAMVWYRQAPGKEREFVASISWRGGRTYYADSVKGRFTISRDNAKNTVYLQMNSLKQEDTAVYYCAKGYLALGQPDDYWGQGTQVTVSS”, the “polyreactivity (PSR sort gate)” value was “high polyreactivity”. For “QVQLVESGGGLVQAGGSLRLSCGASGSTFWYYAMGWYRPAPGKERELVAAISSRGGSTYYADSVKGRFTISRDKAKNTVYFQLNSLKPEDTAVYYCAILGSYGGGQRRKYDSWGQGTQVTVSS”, the “polyreactivity (PSR sort gate)” value was “high polyreactivity”. In the case of “QVQLVESGGGLVQAGGSLRLSCDASGFIFVVYALGWYRQAPGKERDLVAAITNGGITYYADSVKGRFTISRDNAKNTVYLQMNSLKPEDTAVYYCNAQYTVYDGYVCYYYWGQGTQVTVSS”, the “polyreactivity (PSR sort gate)” value was “low polyreactivity”. For “QVQLVESGGGLVQAGGSLRLSCAASGRTFFYNAMAWYRQAPGKERESTYYADSVKGRFTISRDNAKNTVYLQMNSLIPEDTAVSYCAAGTAYVAYEGDKGDYCGQGTQVTVSS”, the “polyreactivity (PSR sort gate)” value was “low polyreactivity”. In the case of “QVQLVESGGGLFQAGGSLRLSCAASGFTFYGYAMAWYRHAPGKERELVAAITFRGDRTYYADSVKGRFTISRDNAKNTVYLQINSLKPEDTAVYYCAAVRPSGWYSYLSLYIVRRGYWGQGTQVTVSS”, the “polyreactivity (PSR sort gate)” value was “low polyreactivity”. With “QVQLVESGGGLVQAGGSLRLSCAASGFTFYRYAMGWYRQAPGKERELVAAINWSGVSTYYADSVKGRFTISRDNAKNTVYLQMNSLKPEDTAVYYCAADTYAGYNGNYWGQGTQVTVSS” the “polyreactivity (PSR sort gate)” value was “high polyreactivity”. With “QVQLVESGGGLVQAGGSLRLSCAASGSTSPGYAMGWYRQAPGKERELVAAITFRGTRTYYADSVKGRFTISRDNAKNTVYLQMNSLKPEDTAVFYCNVVGYGPNRGRVDYWGQGTQVTVSS” the “polyreactivity (PSR sort gate)” value was “high polyreactivity”. In the case of “QVQLVESGGGLVQAGGSLRLSCAASGFTFYFYAMGWYRQAPGKERELVAAISRGGSTTYADSVKGRFTISRDNAKNTVYLQMNSLKPEDTAVYYCAKDRRRWYYTRDYWGQGTQVTVSS”, the “polyreactivity (PSR sort gate)” value was “low polyreactivity”. In the case of “QVQLVESGGGLVQAGGSLRLSCAASGSIFYLYAMGWYRQAPGKERELVAAITSIGGSTYADSVKGRFTISRDNAKNTVYLQMNSLKPEDTALYYCNTDEYPLTVQVQYYYWGQGTQVTVSS”, the “polyreactivity (PSR sort gate)” value was “low polyreactivity”. In the case of “QVQLVESGGGLVQAGGSLRLSCAASGRIFLWYAMGWSRQAPGKERELVAGISSGASTYYADSVKGRFTISRDNAKNTVYLQMNSLKPEDTAVYYCAAPYDRLTGWSRYDYWGQGTQVTVSS”, the “polyreactivity (PSR sort gate)” value was “high polyreactivity”. For “QVQLVESGGGLVQEGGSLRLSCAASGFIFDGNAMGWYRQAPGKERELVAAMSWDGGTYYADSVKGRFTISRDNAKNTVYLQMNSLKPEDTAVYYCAAEQTQLYSFGWDEYWGQGTQVTVSS”, the “polyreactivity (PSR sort gate)” value was “low polyreactivity”. In the case of “QVQLVESGGGLVQAGGSLRLSCAASGSIFVYYAMGWYRPAPGKERELVASISRGGTSTYYADSVKGRFTISRDNAKNTVYFQMNSLKPEDTAVYYCAAQPYRTGTYDYWGQGTQVTVSS”, the “polyreactivity (PSR sort gate)” value was “low polyreactivity”. For “QVQLVESGGGLVQAGGSLRLSCAASGSTFYTYTMGWYRQAPGKERELVAAISSSGGDTYYADSVKGRFTISRDNAKNTVYLQMNSLKPEDSAVYYCAALGAFPSLEFDYWGQGTQVTVSS”, the “polyreactivity (PSR sort gate)” value was “low polyreactivity”. In the case of “QVQLVESGGGLVQAGGSLRLSCAASGRILNINAMGWYRQAPGKERELVAAITWRGGRTFYADSVKGRFTISRDNAKNTVYLQMNSLKPEDTAVYYCAASSNTWYPTGYYWGQGTQVTVSS”, the “polyreactivity (PSR sort gate)” value was “high polyreactivity”. In the case of “QVQLVDSGGGLVQAGGSLRLSCAASGSIFGSYAMGWYRQAPGKERELVAGISGRGGSTYYADSVKGRFTISRDNAKNTVYLQMNSLKPEDTAVYYCAAGRRNGWLIPHYYWGQGTQVTVSS”, the “polyreactivity (PSR sort gate)” value was “high polyreactivity”. With “QVQLVESGGGLVQAGGSLRLSCAASGIIFRFYSMGWYRQAPGKERELLAVITSRSDSTYYADSVKGRFTISRDNAKNTVYLQMNSLKPEDTAVYYCNARYPWYYRYSTYDYWGQGTQVTVSS” the “polyreactivity (PSR sort gate)” value was “high polyreactivity”. With “QVQLVESRGGLVQAGGSLRLSCPASGFTNWRNDMGWYRQAPGKERELVADISTAGRTYYADSVKGRFTISRDNAKNTVYLQMNSLNPEDTAVYYCAKRSYYKDQPRYGYWGQGTQVTVSS” the “polyreactivity (PSR sort gate)” value was “low polyreactivity”. In the case of “QVQLVESGGGLVQAGGSLRLSCAASGRIFPGYAMGWYRQAPGKERELVAAISKGGGSKYYADSVKGRFTISRDNAKNTVYLQMNSLKTEDTAVYYCAAQSYPRSYGLDYWGQGTQVTVSS”, the “polyreactivity (PSR sort gate)” value was “high polyreactivity”. With “QVQLVESGGGLVQAGGSLRLSCAASGSIFLSYAMGWDRPAPGKVRELVADISRSGGSTYYADSVKGRFTISRDNAKNTVYLQMNSLKPEDTAVYYCAVYIAVYEGDYWGQGTQVTVSS” the “polyreactivity (PSR sort gate)” value was “low polyreactivity”. In the case of “QVQLVESGGGLVQAVGSLRLSCAASGRTFGTYAMGWYRQAPGKERELVAAISSGGSTYADSVKGRFTISRDNAKNTVYLQMNSLKPEDTAVYYCNNVRRKQSVLTFDYWGQGTQVTVSS”, the “polyreactivity (PSR sort gate)” value was “high polyreactivity”. With “QVQLVESGGGLVQAGGSLRLSCAASGLTFYPNAMGWYRQAPGKERELVAGITSGGSTYYADSVKGRFTISRDNAKNTVYLQMNSLKPEDTAVYYCAAYYNFGDYEYDYWGQGTQVTVSS” the “polyreactivity (PSR sort gate)” value was “low polyreactivity”. In the case of “QVQLVESGGGLVQAGGSLRLSCAASGSTFIYNAMGWYRQAPGKERELVAAITWNGGSTYYADSVKGRFTISRDNAKNTVYLQMNSLKPEDTAVYYCAVDKGSQPHYDYWGQGTQVTVSS”, the “polyreactivity (PSR sort gate)” value was “low polyreactivity”. With “QVQLVESAGGLVQAGGSLRLSCAASVSIFFIYARGWYRQAPGKERELVATISRSDVSTFYGDSVKGRFTISRDNAKNTVYLQMNSLKPEDTAVYYCAAEWSPPEPIQLYGYWGQGTQVTVSS” the “polyreactivity (PSR sort gate)” value was “high polyreactivity”. With “QVQLVESGGGLVQAGGSLRLSCAASGFTFEWYTMGWYRQAPGKERELVADISGDGTTYYADSVKGRFTISRDNAKNTLYLQMNSLKPEDTAVYYCAARTVGRKAGFDYWGQGTQVTVSS” the “polyreactivity (PSR sort gate)” value was “high polyreactivity”. In the case of “QVQLVESGGGLVQAGGSLRLTCAASGRTFSYYTIGWYRQAPGKELELVADITGSGGSTYYADSVKGRFTISRDNAKNTVYLQINSLKPEDTAVYYCSAGWPYVYYTWYWTMDYWGQGTQVTVSS”, the “polyreactivity (PSR sort gate)” value was “high polyreactivity”. With “QVQLVESGGGLVQAGGSLRLSCDASGRIFSYYAMGWYRPAPGKERELVAAITRSGGNTYYADSVKGRFTISRDNAKNTVYLLMNSLKPEDTAVYYCAARLGRPFYGPNRYDYWGQGTQVTVSS” the “polyreactivity (PSR sort gate)” value was “high polyreactivity”. For “QVQLVESGGGLVQAGGSLRLSCAASGSIFSGYAMGWYRQAPGKERELVAAITSGGSTDYADSVKGRFTISRDNAKNSVYLQMNSLKPEDTAVYYCAAEGGYSSYGYDYWGQGTQVTVSS”, the “polyreactivity (PSR sort gate)” value was “low polyreactivity”. In the case of “QVQLVESGGGLVQAGGSLRLSCAASGSTFYSNAMGWYRQAPGKERELVARISWIGTSTYYADSVKGRFTISRDNAKNTVYLQMNSLKPEDTAVYDCAAGTVGPRRRRYIWLDYWGQGTQVTVSS”, the “polyreactivity (PSR sort gate)” value was “high polyreactivity”.
